Series [1] relates to T1, E3-18-ABE8e (Neisseria meningitidis).
T1 sequence: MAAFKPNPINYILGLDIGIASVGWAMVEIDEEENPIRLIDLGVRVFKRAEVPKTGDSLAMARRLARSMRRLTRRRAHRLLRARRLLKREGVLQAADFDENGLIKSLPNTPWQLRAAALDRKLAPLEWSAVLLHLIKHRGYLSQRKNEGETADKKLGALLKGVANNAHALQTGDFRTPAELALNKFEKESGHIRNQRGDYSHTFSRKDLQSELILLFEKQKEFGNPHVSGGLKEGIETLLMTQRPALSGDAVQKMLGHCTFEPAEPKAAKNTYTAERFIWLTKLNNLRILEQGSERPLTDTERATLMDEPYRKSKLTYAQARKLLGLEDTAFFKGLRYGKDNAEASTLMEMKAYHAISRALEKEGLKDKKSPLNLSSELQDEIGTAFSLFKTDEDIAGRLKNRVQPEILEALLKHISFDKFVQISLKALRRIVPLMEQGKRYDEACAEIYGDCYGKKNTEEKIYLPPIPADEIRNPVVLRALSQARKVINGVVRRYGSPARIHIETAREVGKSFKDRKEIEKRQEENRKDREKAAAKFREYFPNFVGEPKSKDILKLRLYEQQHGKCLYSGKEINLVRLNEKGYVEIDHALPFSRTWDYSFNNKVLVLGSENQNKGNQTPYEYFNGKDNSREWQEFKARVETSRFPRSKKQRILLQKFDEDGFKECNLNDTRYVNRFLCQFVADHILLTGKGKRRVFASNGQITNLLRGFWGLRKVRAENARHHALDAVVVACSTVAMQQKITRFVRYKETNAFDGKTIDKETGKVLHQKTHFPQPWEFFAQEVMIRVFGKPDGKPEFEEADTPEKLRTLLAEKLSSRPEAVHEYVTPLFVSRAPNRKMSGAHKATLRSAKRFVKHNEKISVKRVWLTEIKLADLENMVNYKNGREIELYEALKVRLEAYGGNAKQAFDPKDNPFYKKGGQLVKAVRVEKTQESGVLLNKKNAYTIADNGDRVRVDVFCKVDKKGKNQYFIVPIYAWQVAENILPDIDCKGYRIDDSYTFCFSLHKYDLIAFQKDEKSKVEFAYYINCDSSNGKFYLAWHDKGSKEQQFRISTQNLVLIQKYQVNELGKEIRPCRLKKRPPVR
In words: cell_activity. The note with it: PAM N4YNC average, E. coli ABE-PPA; 33% on N4YND.

In series [2] the test system is T2, Nme2Cas9 (Nme2-ABE8e) (Neisseria meningitidis).
T2 sequence: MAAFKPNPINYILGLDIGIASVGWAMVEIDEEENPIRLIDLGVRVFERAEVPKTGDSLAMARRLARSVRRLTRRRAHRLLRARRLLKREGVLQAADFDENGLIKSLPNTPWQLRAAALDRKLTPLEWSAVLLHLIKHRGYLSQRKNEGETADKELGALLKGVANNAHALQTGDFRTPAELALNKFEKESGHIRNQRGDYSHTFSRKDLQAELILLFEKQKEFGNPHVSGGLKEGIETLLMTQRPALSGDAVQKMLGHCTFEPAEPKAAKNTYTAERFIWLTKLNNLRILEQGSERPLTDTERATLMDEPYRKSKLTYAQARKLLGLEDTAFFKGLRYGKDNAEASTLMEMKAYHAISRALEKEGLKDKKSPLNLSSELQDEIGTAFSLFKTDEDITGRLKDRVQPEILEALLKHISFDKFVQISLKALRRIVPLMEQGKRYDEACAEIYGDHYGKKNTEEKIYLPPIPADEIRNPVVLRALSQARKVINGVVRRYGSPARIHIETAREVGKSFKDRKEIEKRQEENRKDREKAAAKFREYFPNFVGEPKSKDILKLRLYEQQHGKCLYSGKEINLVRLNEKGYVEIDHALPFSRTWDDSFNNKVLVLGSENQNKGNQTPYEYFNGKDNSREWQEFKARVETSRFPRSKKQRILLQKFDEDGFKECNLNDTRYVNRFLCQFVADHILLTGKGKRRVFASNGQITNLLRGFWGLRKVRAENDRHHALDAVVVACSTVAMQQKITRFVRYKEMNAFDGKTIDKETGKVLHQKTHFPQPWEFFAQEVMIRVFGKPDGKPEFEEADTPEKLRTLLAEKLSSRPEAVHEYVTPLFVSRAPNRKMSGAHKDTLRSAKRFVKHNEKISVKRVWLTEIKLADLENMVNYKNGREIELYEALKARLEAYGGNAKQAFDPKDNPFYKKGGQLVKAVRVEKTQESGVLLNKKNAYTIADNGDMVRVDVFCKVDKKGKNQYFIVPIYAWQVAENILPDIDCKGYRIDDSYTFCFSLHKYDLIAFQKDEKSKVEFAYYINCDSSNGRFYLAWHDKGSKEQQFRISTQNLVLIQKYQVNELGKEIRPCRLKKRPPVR
Put plainly: cell_activity. As to conditions: PAM N4YNC average, E. coli ABE-PPA; 14% on N4YND.

Regarding “AUGGCCCAGACUGAGCACGUGAGGUUGUAGCUCCCUUUCUCAUUUCGGAAACGAAAUGAGAACCGUUGCUACAAUAAGGCCGUCUGAAAAGAUGUGCCGCAACGCUCUGCCCCUUAAAGCUUCUGCUUUAAGGGGCAUCGUUUA / ATGGCCCAGACTGAGCACGTGA / TCACGTGCTCAGTCTGGGCCAT [ABE-PPA sgRNA ; ABE-PPA protospacer library target]”, the activity (% A-to-G conversion) amounted to 61 in series [1] and 18 in series [2].

The values above are taken from patent US20250027114.
